According to patent US20250034594A1, “RNA-GUIDED GENOME RECOMBINEERING AT KILOBASE SCALE” (THE BOARD OF TRUSTEES OF THE LELAND STANFORD JUNIOR …, priority 2021, published 2025):

Assays:
DYNLT1 locus = assay: mKate knock-in gene-editing assay, RecE/RecT homologs, DYNLT1 locus; assay type: cell-based, human; settings: HEK293 cells, MCP fusion, n=3
Method: (§1) Transfection HEK293T cells were seeded into 96-well plates (Corning) 12-24 hours prior to transfection at a density of 30,000 cells/well, and 250 ng of total DNA was transfected per well. HeLa and HepG2 cells were seeded into 48-well plates (Corning) one day prior to transfection at a density of 50,000 and 30,000 cells/well respectively, and 400 ng of total DNA was transfected per well. Transfections were performed with Lipofectamine 3000 (Life Technologies) following the manufacturer's instructions.
(§2) Fluorescence-activated cell sorting (FACS) mKate knock-in efficiency was analyzed on a CytoFLEX flow cytometer (Beckman Coulter; Stanford Stem Cell FACS Core). 72 hours after transfection, cells were washed once with PBS and dissociated with TrypLE Express Enzyme (Thermo Fisher Scientific). Cell suspension was then transferred to a 96-well U-bottom plate (Thermo Fisher Scientific) and centrifuged at 300×G for 5 minutes. After removing the supernatant, pelleted cells were resuspended with 50 μl 4% FBS in PBS, and cells were sorted within 30 minutes of preparation.
(§3) 15 different species of microbes having RecE/RecT proteins were selected for a screen of various RecE and RecT proteins across the microbial kingdom (Table 3). Each protein was codon-optimized and synthesized. As previously described for E. coli RecE/RecT based REDIT systems, each protein was fused via E-XTEN linker to the MCP protein with additional nuclear localization signal. mKate knock-in gene-editing assay was used to measure efficiencies at DYNLT1 locus (FIG. 26A, Table 4) and HSP90AA1 locus (FIG. 26B, Table 4).

HSP90AA1 locus = assay: mKate knock-in gene-editing assay, RecE/RecT homologs, HSP90AA1 locus; assay type: cell-based, human; settings: HEK293 cells, MCP fusion, n=3
Method: as §1, §2, §3

Row | Molecule | Mean mKate+ (%), DYNLT1 (DYNLT1 locus) | Mean mKate+ (%), HSP90AA1 (HSP90AA1 locus)
1 | Homolog_E3: RecE, Pantoea dispersa; SEQ ID NO: 120 (protein, listed as Pantoea dispersa) MEPGIYYDISNEAYHSGPGISKSQLDDIARSPAIFQWRKDAPVDTEKTKALDLGTDFHCAVLEPERFADMYRVGPEVNRRTTAGKAEEKEFFEKCEKDGAVPITHDDARKVELMRGSVMAHPIAKQMIAAQGHAEASIYWHDESTGNLCRCRPDKFIPDWNWIVDVKTTADMKKFRREFYDLRYHVQDAFYTDGYAAQFGERPTFVFVVTSTTIDCGRYPTEVFFLDEETKAAGRSEYQSNLVTYSECLSRNEWPGIATLSLPHWAKELRNV | 2.0533% | 6.7467%
2 | Homolog_E1: RecE, Pantoea stewartii; SEQ ID NO: 116 (protein, listed as Pantoea stewartii) MQPGVYYDISNEEYHAGPGISKSQLDDIAVSPAIFQWRKSAPVDDEKTAALDLGTALHCLLLEPDEFSKRFMIGPEVNRRTNAGKQKEQDFLDMCEQQGITPITHDDNRKLRLMRDSAFAHPVARWMLETEGKAEASIYWNDRDTQILSRCRPDKLITEFSWCVDVKSTADIGKFQKDFYSYRYHVQDAFYSDGYEAQFCEVPTFAFLVVSSSIDCGRYPVQVFIMDQQAKDAGRAEYKRNLTTYAECQARNEWPGIATLSLPYWAKEIRNV | 5.7333% | 7.6567%
3 | Homolog_T3: RecT, Pantoea dispersa; SEQ ID NO: 119 (protein, listed as Pantoea dispersa) MSNQPPLATADLQKTQQSNQVAKTPEQTLVGFMNQPAMKSQLAAALPRHMTADRMIRIVTTEIRKTPALAQCDQSSFIGAVVQCSQLGLEPGSALGHAYLLPFGNGRSKSGQSNVQLIIGYRGMIDLARRSGQIVSLSARVVRADDEFSFEYGLDENLIHRPGDNESAPITHVYAVARLKDGGTQFEVMTAKQVEKVKAQSKASSNGPWVTHWEEMAKKTVIRRLFKYLPVSIEMQKAVVLDEKAESDVDQDNASVLSAEYSVLESGTGE | 11.9000% | 7.1200%
4 | Homolog_E6: RecE, Providencia sp. MGF014; SEQ ID NO: 126 (protein, listed as Providencia sp.) MKEGIYYNISNEDYHNGLGISKSQLDLINEMPAEYIWSKEAPVDEEKIKPLEIGTALHCLLLEPDEYHKRYKIGPDVNRRTNVGKEKEKEFFDMCEKEGITPITHDDNRKLMIMRDSALAHPIAKWCLEADGVSESSIYWTDKETDVLCRCRPDRIITAHNYIIDVKSSGDIEKFDYEYYNYRYHVQDAFYSDGYKEVTGITPTFLFLVVSTKIDCGKYPVRTYVMSEEAKSAGRTAYKHNLLTYAECLKTDEWAGIRTLSLPRWAKELRNE | 5.4100% | 5.9300%
5 | Homolog_T6: RecT, Providencia sp. MGF014; SEQ ID NO: 125 (protein, listed as Providencia sp.) MSNPPLAQSDLQKTQGTEVKVKTKDQQLIQFINQPSMKAQLAAALPRHMTPDRMIRIVTTEIRKTPALATCDMQSFVGAVVQCSQLGLEPGNALGHAYLLPFGNGKAKSGQSNVQLIIGYRGMIDLARRSNQIISISARTVRQGDNFHFEYGLNEDLTHTPSENEDSPITHVYAVARLKDGGVQFEVMTYNQVEKVRASSKAGQNGPWVSHWEEMAKKTVIRRLFKYLPVSIEMQKAVVLDEKAEANVDQENATIFEGEYEEVGTDGN | 9.0533% | 6.2500%
6 | Homolog_T4: RecT, Type-F symbiont of Plautia stali; SEQ ID NO: 121 (protein, Type-F symbiont of Plautia stali) MSNQPPIASADLQKTQQSKQVANKTPEQTLVGFMNQPAMKSQLAAALPRHMTADRMIRIVTTEIRKTPALATCDQSSFIGAVVQCSQLGLEPGSALGHAYLLPFGNGRSKSGQSNVQLIIGYRGMIDLARRSGQIVSLSARVVRADDEFSFEYGLDENLIHRPGDNEDAPITHVYAVARLKDGGTQFEVMTAKQVEKVKAQSKASSNGPWVTHWEEMAKKTVIRRLFKYLPVSIEMQKAVVLDEKAESDVDQDNASVLSAEYSVLEGDGGE | 10.4433% | 5.7567%
7 | Homolog_E7: RecE, Providencia alcalifaciens DSM 30120; SEQ ID NO: 144 (protein, listed as Providencia alcalifaciens) MNEGIYYDISNEDYHHGLGISKSQLDLIDESPADFIWHRDAPVDNEKTKALDFGTALHCLLLEPDEFQKRFRIAPEVNRRTNAGKEQEKEFLEMCEKENITPITNEDNRKLSLMKDSAMAHPIARWCLEAKGIAESSIYWKDKDTDILCRCRPDKLIEEHHWLVDVKSTADIQKFERSMYEYRYHVQDSFYSDGYKSLTGEMPVFVFLAVSTVINCGRYPVRVFVLDEQAKSVGRITYKQNLFTYAECLKTDEWAGIRTLSLPSWAKELKHEHTTAS | 4.4733% | 5.7367%
8 | Homolog_E5: RecE, Providencia stuartii; SEQ ID NO: 124 (protein, listed as Providencia stuartii) EGIYYNISNEDYHNGLGISKSQLDLINEMPAEYIWSKEAPVDEEKIKPLEIGTALHCLLLEPDEYHKRYKIGPDVNRRTNAGKEKEKEFFDMCEKEGITPITHDDNRKLMIMRDSALAHPIAKWCLEADGVSESSIYWTDKETDVLCRCRPDRIITAHNYIVDVKSSGDIEKFDYEYYNYRYHVQDAFYSDGYKEVTGITPTFLFLVVSTKIDCGKYPVRTYVMSEEAKSAGRTAYKHNLLTYAECLKTDEWAGIRTLSLPRWAKELRNE | 4.4667% | 6.0233%
9 | Homolog_T7: RecT, Providencia alcalifaciens DSM 30120; SEQ ID NO: 143 (protein, listed as Providencia alcalifaciens) MKAQLAAALPKHITSDRMIRIVSTEIRKTPSLANCDIQSFIGAVVQCSQLGLEPGNALGHAYLLPFGNGKSDNGKSNVQLIIGYRGMIDLARRSGQIISISARTVRQGDNFHFEYGLNENLTHIPEGNEDSPITHVYAVARLKDEGVQFEVMTYNQIEKVRDSSKAGKNGPWVTHWEEMAKKTVIRRLFKYLPVSIEMQKAVILDEKAEANIEQDHSAIFEAEFEEVDSNGN | 5.6467% | 5.3700%
10 | Homolog_E4: RecE, Type-F symbiont of Plautia stali; SEQ ID NO: 122 (protein, Type-F symbiont of Plautia stali) MQPGIYYDISNEDYHGGPGISKSQLDDIAISPAIYQWRKHAPVDEEKTAALDLGTALHCLLLEPDEFSKRFEIGPEVNRRTTAGKEKEKEFMERCEAEGVTPITHDDNRKLRLMRDSAMAHPIARWMLEAQGNAEASIYWNDRDTGVLSRCRPDKIITDFNWCVDVKSTADIIKFQKDFYSYRYHVQDAFYSDGYESHFDETPTFAFLAVSTSIDCGRYPVQVFIMDQQAKDAGRAEYKRNIHTFAECLSRNEWPGIATLSLPYWAKELRNE | 5.7200% | 6.2567%
11 | Homolog_T5: RecT, Providencia stuartii; SEQ ID NO: 123 (protein, listed as Providencia stuartii) MSNPPLAQADLQKTQGTEVKEKTKDQMLVELINKPSMKAQLAAALPRHMTPDRMIRIVTTEIRKTPALATCDMQSFVGAVVQCSQLGLEPGNALGHAYLLPFGNGKSKSGQSNVQLIIGYRGMIDLARRSGQIVSISARTVRQGDNFHFEYGLNENLTHVPGENEDSPITHVYAVARLKDGGVQFEVMTYNQIEKVRASSKAGQNGPWVSHWEEMAKKTVIRRLFKYLPVSIEMQKAVILDEKAEANIDQENATIFEGEYEEVGTDGK | 10.8267% | 6.4300%
12 | Homolog_T2: RecT, Pantoea brenneri; SEQ ID NO: 117 (protein, listed as Pantoea brenneri) MSNQPPIASADLQKTQQSKQVANKTPEQTLVGFMNQPAMKSQLAAALPRHMTADRMIRIVTTEIRKTPQLAQCDQSSFIGAVVQCSQLGLEPGSALGHAYLLPFGNGRSKSGQSNVQLIIGYRGMIDLARRSGQIVSLSARVVRADDEFSFEYGLDENLVHRPGENEDAPITHVYAVARLKDGGTQFEVMTVKQVEKVKAQSKASSNGPWVTHWEEMAKKTVIRRLFKYLPVSIEMQKAVVLDEKAESDVDQDNASVLSAEYSVLESGDEATN | 12.0000% | 6.9233%
13 | Homolog_E2: RecE, Pantoea brenneri; SEQ ID NO: 118 (protein, listed as Pantoea brenneri) MQPGIYYDISNEDYHRGAGISKSQLDDIAISPAIYQWRKHAPVDEEKTAALDLGTALHCLLLEPDEFSKRFQIGPEVNRRTTAGKEKEKEFIERCEAEGITPITHDDNRKLKLMRDSALAHPIARWMLEAQGNAEASIYWNDRDAGVLSRCRPDKIITEFNWCVDVKSTADIMKFQKDFYSYRYHVQDAFYSDGYESHFHETPTFAFLAVSTSIDCGRYPVQVFIMDQQAKDAGRAEYKRNIHTFAECLSRNEWPGIATLSLPFWAKELRNE | 7.4533% | 6.4867%
